# PMC9972942, “E6-Encoded by Cancer-Causing Human Papillomavirus Interacts with Aurora Kinase A To Promote HPV-Mediated Carcinogenesis” (Journal of Virology, 2023)
# T1: GST-tagged HPV16 E7 (human papillomavirus type 16, UniProt P03129 1-98)
# T1 construct: E7 oncoprotein of human papillomavirus type 16; also called GST-16 E7; HPVE7; source: E. coli, purified GST fusion protein
# T1 sequence: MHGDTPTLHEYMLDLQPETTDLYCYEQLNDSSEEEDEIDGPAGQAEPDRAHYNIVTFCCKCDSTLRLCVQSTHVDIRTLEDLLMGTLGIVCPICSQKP
# T2: GST-tagged HPV11 E6 (human papillomavirus type 11, UniProt P04019 1-150)
# T2 construct: E6 protein of human papillomavirus type 11 (low-risk type); construct pGEX2T:HPV-11 E6; also called GST-11E6; lr-HPV11E6; source: E. coli, IPTG-induced, purified on glutathione-conjugated agarose
# T2 sequence: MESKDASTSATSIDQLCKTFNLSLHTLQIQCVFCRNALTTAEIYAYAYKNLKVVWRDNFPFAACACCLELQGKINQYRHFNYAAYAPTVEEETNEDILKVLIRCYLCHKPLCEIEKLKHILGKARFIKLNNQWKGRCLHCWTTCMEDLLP
# T3: GST-tagged HPV58 E6 (human papillomavirus type 58, UniProt P26555 1-149)
# T3 construct: E6 oncoprotein of human papillomavirus type 58; construct pGEX2T:HPV-58 E6; also called GST-58E6; source: E. coli, IPTG-induced, purified on glutathione-conjugated agarose
# T3 sequence: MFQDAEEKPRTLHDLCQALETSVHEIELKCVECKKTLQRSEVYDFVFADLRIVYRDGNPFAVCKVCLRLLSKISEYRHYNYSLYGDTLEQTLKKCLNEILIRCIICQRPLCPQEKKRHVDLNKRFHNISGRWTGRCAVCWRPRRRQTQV
# Columns and labels:
# [1] = molecular target: GST-tagged HPV16 E6 with its PDZ binding motif deleted (human papillomavirus type 16)
# [2] = molecular target: GST-tagged HPV16 E6 with its PDZ binding motif deleted (human papillomavirus type 16); experiment: pull-down; purified GST fusion proteins on glutathione-conjugated agarose incubated with equal amounts of in vitro-translated HA-AurA, 1 h at room temperature; washed 3 times with PBS containing 0.1% Tween 20; bound AurA detected by Western blotting with an HA-specific antibody; bands quantified with ImageJ relative to GST-16E6 (n = 3)
# GST-tagged HPV16 E6 S89A [3] = molecular target: T4, GST-tagged HPV16 E6 S89A (human papillomavirus type 16, UniProt P03126 1-158, S89A); experiment: as above; settings: one partner purified
# T4 construct: E6 oncoprotein of human papillomavirus type 16 with S89A, made by site-directed mutagenesis of the 16E6 construct (parent m2); 'full length' is said of the wild-type parent; the mutant is a point mutant of it; source: E. coli, IPTG-induced, purified on glutathione-conjugated agarose
# [4] = molecular target: T5, GST-tagged HPV16 E6 S150A (human papillomavirus type 16, UniProt P03126 1-158, S150A); experiment: as above; settings: one partner purified
# T5 construct: E6 oncoprotein of human papillomavirus type 16 with S150A, made by site-directed mutagenesis of the 16E6 construct (parent m2); 'full length' is said of the wild-type parent; the mutant is a point mutant of it; source: E. coli, IPTG-induced, purified on glutathione-conjugated agarose
# [5] = molecular target: T6, GST-tagged HPV16 E6 T140A (human papillomavirus type 16, UniProt P03126 1-158, T140A); experiment: as above; settings: one partner purified
# T6 construct: E6 oncoprotein of human papillomavirus type 16 with T140A, made by site-directed mutagenesis of the 16E6 construct (parent m2); 'full length' is said of the wild-type parent; the mutant is a point mutant of it; source: E. coli, IPTG-induced, purified on glutathione-conjugated agarose
# GST-tagged HPV16 E7 = molecular target: T1, GST-tagged HPV16 E7; experiment: as above; settings: one partner purified
# [6] = molecular target: T7, GST-tagged HPV16 E6 S145A (human papillomavirus type 16, UniProt P03126 1-158, S145A); experiment: as above; settings: one partner purified
# T7 construct: E6 oncoprotein of human papillomavirus type 16 with S145A, made by site-directed mutagenesis of the 16E6 construct (parent m2); 'full length' is said of the wild-type parent; the mutant is a point mutant of it; source: E. coli, IPTG-induced, purified on glutathione-conjugated agarose
# GST-tagged HPV18 E6 = molecular target: T8, GST-tagged HPV18 E6 (human papillomavirus type 18, UniProt P06463 1-158); experiment: as above; settings: one partner purified
# T8 construct: E6 oncoprotein of human papillomavirus type 18; construct pGEX2T:HPV-18 E6; also called GST-18E6; source: E. coli, IPTG-induced, purified on glutathione-conjugated agarose
# GST-tagged HPV11 E6 = molecular target: T2, GST-tagged HPV11 E6; experiment: as above; settings: one partner purified
# GST-tagged HPV58 E6 = molecular target: T3, GST-tagged HPV58 E6; experiment: as above; settings: one partner purified
# GST-tagged HPV16 E6 S89A [7] = molecular target: T4, GST-tagged HPV16 E6 S89A; experiment: cell-based or functional assay
# [8] = molecular target: T5, GST-tagged HPV16 E6 S150A; experiment: cell-based or functional assay
# [9] = molecular target: T6, GST-tagged HPV16 E6 T140A; experiment: cell-based or functional assay
# [10] = molecular target: GST-tagged HPV16 E6 wild type (human papillomavirus type 16, UniProt P03126 1-158); experiment: cell-based or functional assay
# [11] = molecular target: T7, GST-tagged HPV16 E6 S145A; experiment: cell-based or functional assay
molecule,measurement,setting,value
"Aurora kinase A (HA-AurA, in vitro translated) (from UniProt O14965 1-403) (enzyme)","AurA kinase activity (ADP-Glo) of purified AurA in the presence of GST-E6 ΔPBM, relative to AurA with GST alone",[1],0.85
same,AurA bound relative to GST-16E6 (%),[2],87%
"Aurora kinase A (HA-AurA, in vitro translated) (enzyme, UniProt O14965 1-403, looked up, Aurora kinase A (AurA); plasmid pcDNA3.1:HA-AurA; the functional rows are written on this molecule; source: in vitro translated (TNT Coupled Reticulocyte Lysate System, Promega)) MDRSKENCISGPVKATAPVGGPKRVLVTQQFPCQNPLPVNSGQAQRVLCPSNSSQRIPLQAQKLVSSHKPVQNQKQKQLQATSVPHPVSRPLNNTQKSKQPLPSAPENNPEEELASKQKNEESKKRQWALEDFEIGRPLGKGKFGNVYLAREKQSKFILALKVLFKAQLEKAGVEHQLRREVEIQSHLRHPNILRLYGYFHDATRVYLILEYAPLGTVYRELQKLSKFDEQRTATYITELANALSYCHSKRVIHRDIKPENLLLGSAGELKIADFGWSVHAPSSRRTTLCGTLDYLPPEMIEGRMHDEKVDLWSLGVLCYEFLVGKPPFEANTYQETYKRISRVEFTFPDFVTEGARDLISRLLKHNPSQRPMLREVLEHPWITANSSKPSNCQNKESASKQS",AurA bound relative to GST-16E6 wild type (%),GST-tagged HPV16 E6 S89A [3],67.3%
same,AurA bound relative to GST-16E6 wild type (%),[4],56%
same,AurA bound relative to GST-16E6 wild type (%),[5],25.3%
same,AurA bound relative to GST-16E6 (%),GST-tagged HPV16 E7,37.3%
same,AurA bound relative to GST-16E6 wild type (%),[6],24%
same,AurA bound relative to GST-16E6 (%),GST-tagged HPV18 E6,102%
same,AurA bound relative to GST-16E6 (%),GST-tagged HPV11 E6,12%
same,AurA bound relative to GST-16E6 (%),GST-tagged HPV58 E6,158%
same,"AurA kinase activity (ADP-Glo) of purified AurA in the presence of GST-E6 S89A, relative to AurA with GST alone",GST-tagged HPV16 E6 S89A [7],0.65
same,"AurA kinase activity (ADP-Glo) of purified AurA in the presence of GST-E6 S150A, relative to AurA with GST alone",[8],0.68
same,"AurA kinase activity (ADP-Glo) of purified AurA in the presence of GST-E6 T140A, relative to AurA with GST alone",[9],0.61
same,"AurA kinase activity (ADP-Glo) of purified AurA in the presence of GST-E6, relative to AurA with GST alone",[10],0.85
same,"AurA kinase activity (ADP-Glo) of purified AurA in the presence of GST-E6 S145A, relative to AurA with GST alone",[11],0.68
